Results taken from patent US20240010735A1 (EISAI R AND D MANAGEMENT, published 2024).

Experiments:
Assay in all cases: ELISA: Fc-His proteins (1 nM) captured on anti-6-His antibody, antibody B 10 µg/mL with human IgG 100 µg/mL, HRP anti-human kappa light chain antibody, OD450 as % of mouse EphA4-Fc-His
[1] = target: T1, mouse EphA3 extracellular region-Fc-His protein (mouse; human, UniProt P29319 21-540)
T1 construct: extracellular domain; not shown: Fc region of human IgG1; histidine tag
T1 sequence (looked up): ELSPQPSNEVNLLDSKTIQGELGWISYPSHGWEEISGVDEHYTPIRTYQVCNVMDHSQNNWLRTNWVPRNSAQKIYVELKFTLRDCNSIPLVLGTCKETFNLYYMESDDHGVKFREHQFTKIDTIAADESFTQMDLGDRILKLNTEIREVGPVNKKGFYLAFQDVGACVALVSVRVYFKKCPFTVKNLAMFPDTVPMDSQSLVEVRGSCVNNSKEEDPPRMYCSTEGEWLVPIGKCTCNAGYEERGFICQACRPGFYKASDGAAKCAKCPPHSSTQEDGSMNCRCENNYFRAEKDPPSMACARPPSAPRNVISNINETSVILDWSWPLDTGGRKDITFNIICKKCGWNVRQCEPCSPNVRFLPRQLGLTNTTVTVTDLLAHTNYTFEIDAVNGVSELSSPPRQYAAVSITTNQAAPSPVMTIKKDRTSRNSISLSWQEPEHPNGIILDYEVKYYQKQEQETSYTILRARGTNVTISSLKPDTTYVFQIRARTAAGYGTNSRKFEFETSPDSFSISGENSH
Description: (§1) Rabbit anti-6-His antibodies (Bethyl Laboratories) were coated onto the wells of a 96-well plate (Nunc). After incubating at 4° C. overnight, the wells were blocked at room temperature for 1 hour by 1% Block Ace (DS Pharma Biomedical). After washing 3 times with 0.05% Tween 20/PBS (Thermo […]), each Eph receptor of mouse extracellular region-Fc-His protein (final concentration 1 nM) was seeded into each well, and incubated at room temperature for 1 hour. After washing 3 times, human IgG solution (100 μg/mL, Sigma) and antibody B (10 μg/mL) were supplemented to the wells, and incubated at room temperature for 1 hour. Horseradish peroxidase-labeled goat anti-human Kappa Light Chain antibody (IBL) was added, and incubated at room temperature for 1 hour. After washing 3 times, TMBZ (3,3′,5,5′-tetramethylbenzidine, Sigma) solution was added to the wells, and upon confirmation of modest coloring, an equal amount of quenching solution (1 N H₂SO₄, Wako Pure Chemicals) was added to the wells, and absorbance at 450 nm was read by a microplate reader (PerkinElmer).

[2] = target: T2, mouse EphA8 extracellular region-Fc-His protein (mouse; human, UniProt O09127 27-541)
T2 construct: extracellular domain; not shown: Fc region of human IgG1; histidine tag
T2 sequence (looked up): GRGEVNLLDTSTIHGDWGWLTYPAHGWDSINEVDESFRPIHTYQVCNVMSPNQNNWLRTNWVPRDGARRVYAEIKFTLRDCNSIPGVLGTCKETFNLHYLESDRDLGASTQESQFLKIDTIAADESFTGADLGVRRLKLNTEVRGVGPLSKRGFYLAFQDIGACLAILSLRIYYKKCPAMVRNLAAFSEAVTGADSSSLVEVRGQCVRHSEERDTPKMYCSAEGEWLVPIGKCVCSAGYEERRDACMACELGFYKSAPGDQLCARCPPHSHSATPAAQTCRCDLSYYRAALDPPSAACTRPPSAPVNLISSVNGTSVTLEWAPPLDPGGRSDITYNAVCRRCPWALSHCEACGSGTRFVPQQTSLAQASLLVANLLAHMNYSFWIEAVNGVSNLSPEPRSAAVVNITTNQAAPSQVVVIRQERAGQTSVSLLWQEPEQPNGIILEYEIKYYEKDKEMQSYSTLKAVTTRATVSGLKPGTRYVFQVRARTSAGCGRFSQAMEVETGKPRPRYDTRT
Description: as §1

[3] = target: T3, mouse EphA10 extracellular region-Fc-His protein (mouse; human, UniProt Q8BYG9 23-565)
T3 construct: extracellular domain; not shown: Fc region of human IgG1; histidine tag
T3 sequence (looked up): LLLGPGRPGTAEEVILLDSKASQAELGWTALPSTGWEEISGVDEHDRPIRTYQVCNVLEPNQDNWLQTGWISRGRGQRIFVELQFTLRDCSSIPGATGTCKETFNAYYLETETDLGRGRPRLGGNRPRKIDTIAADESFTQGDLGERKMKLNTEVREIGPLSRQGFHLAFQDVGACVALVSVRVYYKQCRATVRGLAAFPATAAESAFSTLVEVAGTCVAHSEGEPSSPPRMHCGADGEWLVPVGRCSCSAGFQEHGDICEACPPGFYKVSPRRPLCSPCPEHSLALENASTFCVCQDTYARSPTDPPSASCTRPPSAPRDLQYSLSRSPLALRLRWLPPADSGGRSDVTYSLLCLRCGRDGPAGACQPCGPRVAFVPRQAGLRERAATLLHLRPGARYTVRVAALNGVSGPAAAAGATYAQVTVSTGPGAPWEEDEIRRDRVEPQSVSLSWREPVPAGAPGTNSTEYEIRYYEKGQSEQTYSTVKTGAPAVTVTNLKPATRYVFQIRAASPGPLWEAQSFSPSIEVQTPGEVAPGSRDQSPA
Description: as §1

Measured: binding result

B1: humanized anti-EphA4 monoclonal antibody (antibody B) (antibody, human IgG2, V domains shown)
VH: QVQLVESGGGVVQPGRSLRLSCAVSGFSLTRFGVHWVRQAPGKGLEWVAVIWRGGSTDYNAAFMSRLTISKDNSKNTVYLQMNSLRAEDTAVYYCAKESLFGVYYDYGYYSMDYWGQGTTVTVSS
VL: DIQMTQSPSSLSASVGDRVTITCRASQEISGYLSWLQQKPGKAPKRLIYAASTLDSGVPSRFSGSRSGTEYTLTISSLQPEDFATYYCLQYASYPLTFGGGTKVEIKR
notes: expressed in Expi293F cells; also called humanized antibody of antibody A; HK2-42 / L1-8
no binding (tested: 10 µg/mL): all assays above
